In paper PMC2835748 one finds binding signal (relative affinity (reference)) and binding signal (relative to 1-245) data, which are given here for two substances.

For this data set, the system named is GST-PTB (polypyrimidine tract binding protein). The data set is described as follows: EMSA. Particulars: EMSA: 85 nM RNA, 50 mM HEPES pH 7.6, 25 mM KCl, 2.5 mM MgCl2, 1 mM DTT, 4% glycerol, 0.67 ug/ul yeast tRNA, 10 min at 30 C; 4% native gel with 5% glycerol. In general terms: Mobility shift assays separate free from complexed probe on a gel.

FCV gRNA 1-245 came in with a binding signal (relative affinity (reference)) of 1. FCV gRNA 1-202 WT showed a binding signal (relative to 1-245) of 1.
